Data: US20200325220A1 (INSTITUTE FOR RESEARCH IN BIOMEDICINE, published 2020)

Target: T1, tetanus toxoid (UniProt P04958 2-1315)
T1 construct: also called TT
Assay: SPR, antibody captured on protein A, H1 then TT

T1 sequence (P04958 2-457 limits assumed, chain 1 of 2): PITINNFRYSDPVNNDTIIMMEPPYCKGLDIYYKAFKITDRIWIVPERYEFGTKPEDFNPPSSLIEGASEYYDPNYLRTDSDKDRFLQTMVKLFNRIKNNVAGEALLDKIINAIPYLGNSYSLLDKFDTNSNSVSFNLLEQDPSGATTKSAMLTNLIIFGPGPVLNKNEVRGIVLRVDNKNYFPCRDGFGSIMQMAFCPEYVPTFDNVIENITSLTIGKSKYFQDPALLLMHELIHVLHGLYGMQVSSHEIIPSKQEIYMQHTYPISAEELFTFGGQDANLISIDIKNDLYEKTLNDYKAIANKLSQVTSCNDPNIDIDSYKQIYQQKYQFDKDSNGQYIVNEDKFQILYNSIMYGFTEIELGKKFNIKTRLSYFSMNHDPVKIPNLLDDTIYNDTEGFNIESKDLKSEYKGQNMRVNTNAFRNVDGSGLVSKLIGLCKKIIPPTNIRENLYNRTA
T1 sequence (P04958 458-1315 limits assumed, chain 2 of 2): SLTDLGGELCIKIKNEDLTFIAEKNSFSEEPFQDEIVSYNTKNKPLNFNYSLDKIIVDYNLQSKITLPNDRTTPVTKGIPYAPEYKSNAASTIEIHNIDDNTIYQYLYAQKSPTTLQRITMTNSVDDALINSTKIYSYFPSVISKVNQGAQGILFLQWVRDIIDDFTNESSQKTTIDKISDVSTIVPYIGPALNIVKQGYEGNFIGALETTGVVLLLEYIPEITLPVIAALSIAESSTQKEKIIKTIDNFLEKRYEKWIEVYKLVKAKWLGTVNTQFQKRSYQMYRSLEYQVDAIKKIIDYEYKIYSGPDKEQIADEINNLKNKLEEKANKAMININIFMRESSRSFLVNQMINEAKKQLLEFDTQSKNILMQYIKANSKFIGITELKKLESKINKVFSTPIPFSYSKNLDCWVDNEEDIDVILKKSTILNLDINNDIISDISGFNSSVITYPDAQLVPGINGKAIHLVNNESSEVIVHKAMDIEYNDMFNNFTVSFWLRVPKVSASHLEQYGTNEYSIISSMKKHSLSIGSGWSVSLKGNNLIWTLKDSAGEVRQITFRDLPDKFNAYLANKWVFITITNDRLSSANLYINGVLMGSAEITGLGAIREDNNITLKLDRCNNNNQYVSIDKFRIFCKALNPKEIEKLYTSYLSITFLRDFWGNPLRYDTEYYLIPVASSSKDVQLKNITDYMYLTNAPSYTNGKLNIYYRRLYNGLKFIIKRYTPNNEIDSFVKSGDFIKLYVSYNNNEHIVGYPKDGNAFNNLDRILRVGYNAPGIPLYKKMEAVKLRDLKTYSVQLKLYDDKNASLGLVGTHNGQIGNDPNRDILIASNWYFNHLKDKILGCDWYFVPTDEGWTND

B1: FI174 (antibody, V domains shown)
VH: QVQLVQSGAEVRKPGSSVKVSCKTSGGIIRKYALSWVRQAPGQGLEWMGGIIAIFGTTNYAQKFQGRVTINADESTSTVYLELSSLTSEDTAIYYCAGSATYYESRFDYWGQGTLVTVSS
VL: EIVLTQSPGTLSLSPGARATLSCRASQSVSSSSLAWYQQKPGQAPRLLIYDASSRATGIPDRFSGSGSGTDFTLTISRLEPEDFAVYYCHQYGDSRKTFGQGTKVEIKR
notes: also called F1174; FI74
binding result: no binding (tested: tetanus toxoid 50 nM)
